Test results as given in the supplement of paper PMC10126150.
± gives the standard deviation of the averaged measurements.

The sequences below were run on ATP (assay: switch fluorescence ratio, 500 uM ATP over buffer (Cy3 cluster intensity, sum of 5 cycles each) (fold (ratio)); higher = stronger signal-on switching upon ATP binding; sequences stand for … in TCGTCGGCAGCGTCAGATGTGTATAAGAGACAGTTTTTTTTTTTTTTTTTTTTTTTTT…TC). Conditions: aptamer strand: ATP DNA aptamer (quencher-CACCTGGGGGAGTATTGCGGAGGAAGG + anchor), 100 nM annealed; ATP concentration: 500 uM.
In short: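 Exposure to 500 uM ATP lasted 15 min at 22 °C before imaging, and a selection-buffer image was taken beforehand, for Cy3-labelled switching-strand clusters on a modified Illumina MiSeq flow-cell annealed to 100 nM quencher-labelled ATP aptamer. Five buffer/ATP cycles were run with NaOH stripping and re-annealing between them. The fluorescence ratio per cluster is summed target-cycle over summed buffer-cycle Cy3 intensity, averaged per switch-domain sequence. Clusters outside 100-1000 RFU were excluded.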

In order of rising switch fluorescence ratio:
1. CAAGGGGTAA  0.9524 ± 0.0052
2. CAAGTGAAGC  0.9539 ± 0.005
3. CAATTATGTA  0.963 ± 0.016
4. CAAGTTGTTA  0.964 ± 0.029
5. CAATGGAGGC  0.976 ± 0.072
6. CAATCTGGGA  0.978 ± 0.019
7. CAAGTGCTGT  0.98 ± 0.033
8. CAAGTGTGAG  0.985 ± 0.013
9. CAAGTTGGCT  0.987 ± 0.039
10. CACCATCTTG  0.987 ± 0.019
11. CAAGGGTGTG  0.988 ± 0.012
12. CACGGTGGGT  0.9898 ± 0.0079
13. CAAGGGAGGG  0.991 ± 0.047
14. CAATATGTTT  0.991 ± 0.051
15. CACACGTGGT  0.9908 ± 0.0036
16. CAATGGAGGG  0.992 ± 0.033
17. CAATTCATGG  0.992 ± 0.073
18. CACTGCTTTT  0.992 ± 0.023
19. CAATTAGGTC  0.994 ± 0.024
20. CAAGTCTAGA  0.995 ± 0.026
21. CACATGCTGT  0.995 ± 0.038
22. CACATTTTTG  0.995 ± 0.023
23. CACTGGTTAA  0.995 ± 0.013
24. CAAGGGGTGG  0.996 ± 0.019
25. CAATATTAGT  0.996 ± 0.024
26. CAATTATATG  0.9961 ± 0.0071
27. CACTAAGGGA  0.996 ± 0.014
28. CAATGGTTAG  0.998 ± 0.026
29. CACTTGCAGA  0.999 ± 0.013
30. CAAGGATACA  1 ± 0.034
31. CAATGGAGAG  1 ± 0.018
32. CAATGGCCTC  1 ± 0.047
33. CAATGTAGGG  1.004 ± 0.0077
34. CACAATCGGG  1.005 ± 0.0088
35. CAAGTTCAAA  1.013 ± 0.0055
36. CAAGTTGACC  1.01 ± 0.046
37. CAATAGGGGA  1.01 ± 0.017
38. CAATGCGTAT  1.01 ± 0.07
39. CAATTGCAGG  1.01 ± 0.014
40. CACATGTGCC  1.01 ± 0.021
41. CACCGTGTGG  1.006 ± 0.0088
42. CACGGTGGCT  1.01 ± 0.03
43. CACGGTTTGC  1.01 ± 0.021
44. CACGTGGGCA  1.01 ± 0.048
45. CACTCGTGGC  1.01 ± 0.053
46. CACTTCATTT  1.01 ± 0.013
47. CAAGGATTTA  1.02 ± 0.044
48. CAAGGGGCAC  1.02 ± 0.02
49. CAAGTGAGAA  1.02 ± 0.049
50. CAATCTTTAA  1.02 ± 0.034
51. CAATGGGGGC  1.02 ± 0.045
52. CAATGTAGGT  1.02 ± 0.02
53. CACAGAGGGG  1.02 ± 0.028
54. CACCCTTTTC  1.02 ± 0.024
55. CACCGGTGTT  1.02 ± 0.032
56. CACGAAGGGT  1.02 ± 0.018
57. CACGACATTG  1.02 ± 0.018
58. CACTGTCGAT  1.016 ± 0.0097
59. CAAGGGTGGT  1.03 ± 0.023
60. CAATAGCACG  1.03 ± 0.027
61. CAATTAGCAT  1.03 ± 0.017
62. CAATTGGGGT  1.03 ± 0.06
63. CACAGGGAGT  1.03 ± 0.021
64. CACGCAAGTG  1.03 ± 0.018
65. CACGCGGGGG  1.03 ± 0.015
66. CACGGCCGGA  1.03 ± 0.052
67. CACGGGGGAA  1.03 ± 0.029
68. CACTAATTTT  1.03 ± 0.019
69. CACTAGAACC  1.0319 ± 8.9e-05
70. CAATAGACGG  1.04 ± 0.046
71. CACTGGAGAG  1.039 ± 0.0048
72. CAAGTGATAT  1.05 ± 0.014
73. CACAGCAGCG  1.048 ± 0.0029
74. CACATGCTCG  1.05 ± 0.076
75. CACGGAAGCG  1.05 ± 0.032
76. CACTTAAAAG  1.05 ± 0.13
77. CACCTAATGT  1.06 ± 0.015
78. CACCTGTCCG  1.06 ± 0.02
79. CACGGCTATG  1.06 ± 0.046
80. CACTGGCGAT  1.06 ± 0.054
81. CACTTAGGGC  1.06 ± 0.024
82. CACAATATGT  1.07 ± 0.078
83. CACCCGGGCA  1.07 ± 0.06
84. CACAGCTAAA  1.09 ± 0.018
85. CACGGCAGCT  1.09 ± 0.02
86. CACCGGCTTT  1.1 ± 0.14
87. CACTTAACAG  1.1 ± 0.017
88. CACGAGATAA  1.11 ± 0.079
89. CACGTATTGG  1.11 ± 0.017
90. CACGTTGAAC  1.11 ± 0.034
91. CACCCCGGTT  1.12 ± 0.051
92. CAAGGGGGCC  1.14 ± 0.18
93. CACGTAAAAA  1.16 ± 0.19
94. CAATTACGCA  1.186 ± 0.00065
95. CACAGGCCAA  1.2 ± 0.029
96. CACCGCGTCG  1.21 ± 0.017
97. CACAAACCAG  1.34 ± 0.37
98. CACTCTACGA  1.41 ± 0.073
99. CACGCACATG  1.5 ± 0.076
100. CACACGTACA  1.769 ± 0.01
